Measurements taken from patent publication US7052908B2, “Androgen receptor coactivators” (University of Rochester, priority 1998, dated 2006).

How the values were obtained:
[1] = molecular target: T1, progesterone receptor (PR) (Homo sapiens, UniProt P06401); test: Steroid receptor transactivation, MMTV-CAT reporter in DU145 cells; assay type: cell-based; settings: DU145, relative to AR
T1 construct: expressed in transfected cells; host or cells: DU145
T1 sequence (P06401 1-933): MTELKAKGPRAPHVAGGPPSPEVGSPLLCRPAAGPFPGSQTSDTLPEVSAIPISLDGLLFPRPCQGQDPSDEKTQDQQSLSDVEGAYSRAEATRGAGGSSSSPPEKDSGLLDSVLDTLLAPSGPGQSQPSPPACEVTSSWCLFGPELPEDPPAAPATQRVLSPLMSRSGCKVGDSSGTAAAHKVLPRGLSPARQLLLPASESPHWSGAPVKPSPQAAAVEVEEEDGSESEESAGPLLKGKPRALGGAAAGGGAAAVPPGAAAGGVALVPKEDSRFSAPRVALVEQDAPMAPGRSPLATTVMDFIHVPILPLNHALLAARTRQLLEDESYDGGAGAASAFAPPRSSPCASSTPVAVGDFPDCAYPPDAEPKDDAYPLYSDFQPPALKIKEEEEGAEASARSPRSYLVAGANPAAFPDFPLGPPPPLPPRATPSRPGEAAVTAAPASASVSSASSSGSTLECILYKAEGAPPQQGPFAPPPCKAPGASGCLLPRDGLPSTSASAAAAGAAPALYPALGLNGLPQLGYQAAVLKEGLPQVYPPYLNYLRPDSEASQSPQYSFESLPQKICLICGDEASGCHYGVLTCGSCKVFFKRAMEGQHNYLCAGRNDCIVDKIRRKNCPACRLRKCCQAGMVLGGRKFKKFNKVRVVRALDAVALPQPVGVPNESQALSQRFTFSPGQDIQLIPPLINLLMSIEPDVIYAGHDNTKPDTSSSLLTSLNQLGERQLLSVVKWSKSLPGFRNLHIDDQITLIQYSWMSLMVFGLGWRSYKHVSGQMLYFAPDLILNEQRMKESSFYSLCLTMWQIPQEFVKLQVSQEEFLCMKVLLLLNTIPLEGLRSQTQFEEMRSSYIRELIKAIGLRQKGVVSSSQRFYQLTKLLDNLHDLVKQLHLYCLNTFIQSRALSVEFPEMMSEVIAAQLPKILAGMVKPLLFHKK

[2] = molecular target: T2, glucocorticoid receptor (GR) (Homo sapiens, UniProt P04150); test: as above; assay type: cell-based; settings: DU145, relative to AR
T2 construct: expressed in transfected cells; host or cells: DU145
T2 sequence (P04150 1-777): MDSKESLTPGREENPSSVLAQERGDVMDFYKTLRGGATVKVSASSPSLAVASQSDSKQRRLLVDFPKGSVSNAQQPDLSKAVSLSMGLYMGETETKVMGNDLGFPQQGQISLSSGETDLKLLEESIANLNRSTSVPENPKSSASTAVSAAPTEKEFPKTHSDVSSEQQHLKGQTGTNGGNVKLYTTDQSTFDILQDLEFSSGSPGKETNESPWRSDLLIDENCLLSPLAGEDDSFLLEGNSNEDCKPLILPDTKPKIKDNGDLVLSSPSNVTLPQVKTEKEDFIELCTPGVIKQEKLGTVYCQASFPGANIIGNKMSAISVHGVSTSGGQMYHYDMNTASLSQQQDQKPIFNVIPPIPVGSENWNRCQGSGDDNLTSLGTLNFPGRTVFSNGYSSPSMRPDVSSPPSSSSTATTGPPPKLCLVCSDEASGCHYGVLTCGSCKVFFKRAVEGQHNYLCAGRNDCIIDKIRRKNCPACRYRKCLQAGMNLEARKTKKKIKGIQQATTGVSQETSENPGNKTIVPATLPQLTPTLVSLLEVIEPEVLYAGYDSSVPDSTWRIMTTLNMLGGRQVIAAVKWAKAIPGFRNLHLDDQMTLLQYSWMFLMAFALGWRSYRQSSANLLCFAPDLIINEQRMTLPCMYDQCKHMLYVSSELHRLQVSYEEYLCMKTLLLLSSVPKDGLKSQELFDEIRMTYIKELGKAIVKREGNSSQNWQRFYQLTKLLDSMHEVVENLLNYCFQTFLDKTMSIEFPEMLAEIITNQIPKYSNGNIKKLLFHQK

- enhancement of PR transcriptional activation by ARA55 [1]: to a lesser degree
- enhancement of GR transcriptional activation by ARA55 [2]: to a lesser degree
B1: ARA55: androgen receptor coactivator, 444 aa, SEQ ID NO:4, 91% homology with mouse hic5 (protein)
chain: MPRSGAPKERPAEPLTPPPSYGHQPTGQSGESSGASGDKDHLYSTVCKPRSPKPAAPAAPPFSSSSGVLGTGLCELDRLLQELNATQFNITDEIMSQFPSSKVASGEQKEDQSEDKKRPSLPSSPSPGLPKASATSATLELDRLMASLPDFRVQNHLPASGPTQPPVVSSTNEGSPSPPEPTAKGSLDTMLGLLQSDLSRRGVPTQAKGLCGSCNKPIAGQVVTALGRAWHPEHFVCGGCSTALGGSSFFEKDGAPFCPECYFERFSPRCGFCNQPIRHKMVTALGTHWHPEHFCCVSCGEPFGDEGFHEREGRPYCRRDFLQLFAPRCQGCQGPILDNYISALSLLWHPDCFVCRECFAPFSGGSFFEHEGRPLCENHFHARRGSLCPTCGLPVTGRCVSALGRRFHPDHFACTFCLRPLTKGSFQERAGKPYCQPCFLKLFG
modifications: Homo sapien
